The values that follow come from US20090292003A1.

This test deals with short 17-residues peptide (cargo titrated against CADY-2). Briefly: steady state Trp fluorescence quenching, fixed CADY (0.1 uM) titrated with cargo peptide in PBS, quadratic fit.

B1: CADY-2 (Ac-…-Cya) (peptide)
peptide: GLWRALWRALWRSLWKLKWKV
HELM: PEPTIDE1{[ac].G.L.W.R.A.L.W.R.A.L.W.R.S.L.W.K.L.K.W.K.V.[SCCN[*:1]]}$$$$V2.0
SMILES: CC(=O)NCC(=O)N[C@@H](CC(C)C)C(=O)N[C@@H](Cc1c[nH]c2ccccc12)C(=O)N[C@@H](CCCNC(=N)N)C(=O)N[C@@H](C)C(=O)N[C@@H](CC(C)C)C(=O)N[C@@H](Cc1c[nH]c2ccccc12)C(=O)N[C@@H](CCCNC(=N)N)C(=O)N[C@@H](C)C(=O)N[C@@H](CC(C)C)C(=O)N[C@@H](Cc1c[nH]c2ccccc12)C(=O)N[C@@H](CCCNC(=N)N)C(=O)N[C@@H](CO)C(=O)N[C@@H](CC(C)C)C(=O)N[C@@H](Cc1c[nH]c2ccccc12)C(=O)N[C@@H](CCCCN)C(=O)N[C@@H](CC(C)C)C(=O)N[C@@H](CCCCN)C(=O)N[C@@H](Cc1c[nH]c2ccccc12)C(=O)N[C@@H](CCCCN)C(=O)N[C@H](C(=O)NCCS)C(C)C
B1: the Kd came out at 19 nM.

The term Kd denotes a measure of binding affinity in units of concentration. Higher therefore signals weaker binding.
